From PMC4531439, “New insights into the molecular mechanism of the Rab GTPase Sec4p activation” (BMC Structural Biology, 2015) come the findings set out here.

This data set concerns the molecule itself. As to the kind of experiment: cell-based or functional assay.

B1: Sec2p (51–142) (domain or fragment, UniProt P17065 51-142, looked up)
chain: NYNQLKEDYNTLKRELSDRDDEVKRLREDIAKENELRTKAEEEADKLNKEVEDLTASLFDEANNMVADARKEKYAIEILNKRLTEQLREKDT
For B1, the “mantGDP dissociation rate from Sec4p(19-187) stimulated by 500 nM Sec2p(51-142), compared with Sec2p(1-160)” value is 20 fold slower than Sec2p 1-160.
